Measured values as given in patent US20250313611A1.

Columns and labels:
[1] = target: recombinant human FcRn/FCGRT-B2M heterodimer protein (human) (UniProt P55899); assay: SPR Biacore 8K+, antibody on CM5 chip, FcRn in solution, pH 6.0
[2] = target: recombinant human FcRn/FCGRT-B2M heterodimer protein (human) (UniProt P55899); assay: SPR, steady state affinity, pH 6.0
[3] = target: SARS-COV-2 RBD (His-tagged, Sinobiologicals) (SARS-CoV-2 (Wuhan)) (UniProt P0DTC2); assay: ELISA, coated antigen, dilution series, OD450 [3/3]
[4] = target: recombinant stabilized SARS-COV-1 Spike protein ([change], with foldon) (SARS-CoV-1) (UniProt P59594); assay: as above
[5] = target: recombinant prefusion-stabilized SARS-COV-2 spike protein S-6P (SARS-CoV-2 (Wuhan)) (UniProt P0DTC2); assay: as above

Chain of recombinant human FcRn/FCGRT-B2M heterodimer protein (human) (P55899 24-297 limits assumed, chain 1 of 2): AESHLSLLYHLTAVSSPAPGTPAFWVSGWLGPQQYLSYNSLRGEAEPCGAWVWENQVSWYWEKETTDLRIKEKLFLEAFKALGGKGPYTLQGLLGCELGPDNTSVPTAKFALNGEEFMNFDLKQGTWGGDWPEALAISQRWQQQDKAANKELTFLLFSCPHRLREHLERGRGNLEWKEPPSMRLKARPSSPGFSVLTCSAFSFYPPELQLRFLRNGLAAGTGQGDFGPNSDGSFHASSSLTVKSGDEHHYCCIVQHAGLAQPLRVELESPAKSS
Chain of recombinant human FcRn/FCGRT-B2M heterodimer protein (human) (P61769 21-119 limits assumed, chain 2 of 2, further chain): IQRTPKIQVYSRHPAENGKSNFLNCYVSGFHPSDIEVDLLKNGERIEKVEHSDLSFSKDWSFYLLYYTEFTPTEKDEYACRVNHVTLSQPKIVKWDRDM

| Substance | RUmax (steady state affinity, pH 6.0) [1] [RU] | Kd [2] [nM] | EC50 (read off the curve) [3] [µg/mL] | EC50 (read off the curve) [4] [µg/mL] | EC50 (read off the curve) [5] [µg/mL] |
| --- | --- | --- | --- | --- | --- |
| Bebtelovimab Biosimilar (PX-TA1750) (antibody) | 57.1 | 19.4 |  |  |  |
| human IgG1 isotype control antibody | 37.5 | 15 |  |  |  |
| S309 monoclonal antibody |  |  | 0.1 | 0.04 | 0.09 |
